From PMC6650273 (Nature cell biology, 2019) come the findings set out here.

This assay concerns the target FLAG-Tor (Dictyostelium discoideum, UniProt Q86C65 1-2380). In words: pull-down.

Chain of FLAG-Tor (Q86C65 whole entry): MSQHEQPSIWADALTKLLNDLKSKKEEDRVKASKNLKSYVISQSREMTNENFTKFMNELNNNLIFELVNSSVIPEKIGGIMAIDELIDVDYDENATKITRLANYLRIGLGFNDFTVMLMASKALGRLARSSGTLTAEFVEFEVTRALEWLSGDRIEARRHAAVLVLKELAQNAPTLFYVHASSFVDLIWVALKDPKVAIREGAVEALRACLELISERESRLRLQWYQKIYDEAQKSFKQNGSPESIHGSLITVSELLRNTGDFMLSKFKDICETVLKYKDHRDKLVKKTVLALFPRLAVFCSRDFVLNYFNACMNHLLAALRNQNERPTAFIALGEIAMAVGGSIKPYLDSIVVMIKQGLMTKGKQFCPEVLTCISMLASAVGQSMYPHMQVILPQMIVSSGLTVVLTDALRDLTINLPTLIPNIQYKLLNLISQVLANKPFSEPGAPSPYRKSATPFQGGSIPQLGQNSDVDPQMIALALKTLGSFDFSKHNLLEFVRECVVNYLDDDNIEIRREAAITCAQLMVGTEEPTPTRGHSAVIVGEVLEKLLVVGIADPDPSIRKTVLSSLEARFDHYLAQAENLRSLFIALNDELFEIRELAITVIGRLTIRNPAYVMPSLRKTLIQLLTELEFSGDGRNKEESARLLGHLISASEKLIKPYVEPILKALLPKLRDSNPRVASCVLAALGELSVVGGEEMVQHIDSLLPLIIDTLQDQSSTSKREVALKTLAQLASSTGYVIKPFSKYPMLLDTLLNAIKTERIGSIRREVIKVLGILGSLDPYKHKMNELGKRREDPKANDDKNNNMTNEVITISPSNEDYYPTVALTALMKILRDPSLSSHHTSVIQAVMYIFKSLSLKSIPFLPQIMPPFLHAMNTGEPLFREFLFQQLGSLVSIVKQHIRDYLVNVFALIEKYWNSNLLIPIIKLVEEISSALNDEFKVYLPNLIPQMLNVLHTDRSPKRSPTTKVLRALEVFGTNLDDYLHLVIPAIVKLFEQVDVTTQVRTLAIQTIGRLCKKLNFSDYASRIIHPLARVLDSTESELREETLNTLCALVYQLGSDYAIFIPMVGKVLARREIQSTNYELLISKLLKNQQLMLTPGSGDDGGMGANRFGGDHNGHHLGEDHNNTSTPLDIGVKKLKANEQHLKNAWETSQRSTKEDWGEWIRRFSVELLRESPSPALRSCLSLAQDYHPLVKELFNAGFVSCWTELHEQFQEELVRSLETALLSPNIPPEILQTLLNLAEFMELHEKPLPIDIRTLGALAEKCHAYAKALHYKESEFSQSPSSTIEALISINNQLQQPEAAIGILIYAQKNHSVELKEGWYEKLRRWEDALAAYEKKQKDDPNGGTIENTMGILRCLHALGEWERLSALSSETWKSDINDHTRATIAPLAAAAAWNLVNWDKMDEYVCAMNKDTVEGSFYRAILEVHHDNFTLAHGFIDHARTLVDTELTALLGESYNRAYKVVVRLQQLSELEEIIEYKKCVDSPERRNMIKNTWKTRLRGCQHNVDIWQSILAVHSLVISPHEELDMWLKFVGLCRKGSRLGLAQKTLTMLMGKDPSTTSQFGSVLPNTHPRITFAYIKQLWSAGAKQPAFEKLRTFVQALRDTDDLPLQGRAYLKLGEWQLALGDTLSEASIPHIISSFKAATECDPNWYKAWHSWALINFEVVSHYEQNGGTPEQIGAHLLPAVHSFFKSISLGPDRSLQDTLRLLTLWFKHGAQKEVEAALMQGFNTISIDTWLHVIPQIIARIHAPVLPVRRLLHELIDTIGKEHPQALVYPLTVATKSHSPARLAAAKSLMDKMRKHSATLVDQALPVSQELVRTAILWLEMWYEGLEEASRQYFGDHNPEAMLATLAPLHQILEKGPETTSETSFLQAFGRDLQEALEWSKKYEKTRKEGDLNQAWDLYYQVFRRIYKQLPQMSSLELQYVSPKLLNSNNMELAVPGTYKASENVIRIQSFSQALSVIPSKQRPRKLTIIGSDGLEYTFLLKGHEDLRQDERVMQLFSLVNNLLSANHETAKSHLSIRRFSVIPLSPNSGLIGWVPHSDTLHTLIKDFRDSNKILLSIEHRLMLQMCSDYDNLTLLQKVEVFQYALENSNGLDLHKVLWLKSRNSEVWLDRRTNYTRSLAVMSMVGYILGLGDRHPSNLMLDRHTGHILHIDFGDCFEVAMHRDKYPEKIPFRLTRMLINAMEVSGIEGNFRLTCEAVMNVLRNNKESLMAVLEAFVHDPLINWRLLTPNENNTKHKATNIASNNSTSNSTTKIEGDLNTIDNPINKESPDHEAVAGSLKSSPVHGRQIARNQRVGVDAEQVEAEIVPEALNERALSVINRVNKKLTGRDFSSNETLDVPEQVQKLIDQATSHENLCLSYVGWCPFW

B1: GFP-RacE_(T25N), GDP-bound, purified after chemoattractant stimulation (Ser192 phosphorylated) (natural protein)
chain: MSEDQGSGATRVKLVVVGDGAVGKNCLLICYAQNDFPVDYVPTVFENYTATRKRGNEDIKVHLWDTAGQEEYDRLRPLSYPGADVVLLCFSTISQSSYEAIRDKWAPEVNHYIPDVPSILVGTKIDLREQQHPDPNSGKFEPITADMGISMQKQIKAKKYLEVSAKTRQGLEEVFSAAIEIVLESRGMDKKSQDGSSSASGVPSGDKPTKGKAGKKKSGCIIL
modifications: phosphoserine at 192 (chemoattractant-induced)
For B1, the binding result was “binds”.
